Data reported in PMC6755802.

Biological target: IL-2 binary complex stapler scFv, recombinantly expressed (human)
Assay: SPR; biotinylated scFv immobilised on Biacore SA chip at low density; analytes flowed 60 s; complexes pre-incubated 30 min at room temperature; 25 °C; HBS-P+ with 0.2% BSA; KD from equilibrium titration, 1:1 model; in Fig. 1D all proteins at 60 μM

Substance: Super-2/IL-2Rβ binary complex (from UniProt P60568 21-153; P14784 27-240)
- Kd: 0.21 µM
